Values of other authors, collected in article PMC6997106.
pKd: −log10 of the molar value.

Biological target: RAGE V-domain V-domain (Homo sapiens) (UniProt Q15109)
Assay: SPR

Chain of RAGE V-domain V-domain (Homo sapiens) (Q15109 23-116): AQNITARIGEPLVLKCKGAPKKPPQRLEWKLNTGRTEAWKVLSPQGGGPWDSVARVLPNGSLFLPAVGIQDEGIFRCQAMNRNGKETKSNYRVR
Chain of S100B (P04271 2-92): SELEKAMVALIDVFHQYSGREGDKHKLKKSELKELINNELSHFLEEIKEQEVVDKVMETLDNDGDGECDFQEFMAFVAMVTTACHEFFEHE

pKd: 6.30
Substance: S100B (from UniProt P04271)
